The data set concerns the molecule itself. As to the kind of experiment: cryo-EM structure; soluble MPEG1 ectodomain, 2.0-2.5 mg/mL, 20 mM Tris-HCl pH 7.2, 0.3 M NaCl; single particle analysis; two hexadecameric rings stacked head to head (D16, C16 or C1 imposed).

As usually defined, the stoichiometry N is the number of molecules, sites or subunits per partner or assembly.

B1: human MPEG1 (Macrophage-expressed gene 1 / Perforin-2) soluble ectodomain, wild type (domain or fragment)
chain: KSGKPSGEMDEVGVQKCKNALKLPVLEVLPGGGWDNLRNVDMGRVMELTYSNCRTTEDGQYIIPDEIFTIPQKQSNLEMNSEILESWANYQSSTSYSINTELSLFSKVNGKFSTEFQRMKTLQVKDQAITTRVQVRNLVYTVKINPTLELSSGFRKELLDISDRLENNQTRMATYLAELLVLNYGTHVTTSVDAGAALIQEDHLRASFLQDSQSSRSAVTASAGLAFQNTVNFKFEENYTSQNVLTKSYLSNRTNSRVQSIGGVPFYPGITLQAWQQGITNHLVAIDRSGLPLHFFINPNMLPDLPGPLVKKVSKTVETAVKRYYTFNTYPGCTDLNSPNFNFQANTDDGSCEGKMTNFSFGGVYQECTQLSGNRDVLLCQKLEQKNPLTGDFSCPSGYSPVHLLSQIHEEGYNHLECHRKCTLLVFCKTVCEDVFQVAKAEFRAFWCVASSQVPENSGLLFGGLFSSKSINPMTNAQSCPAGYFPLRLFENLKVCVSQDYELGSRFAVPFGGFFSCTVGNPLVDPAISRDLGAPSLKKCPGGFSQHPALISDGCQVSYCVKSGLFTGGSLPPARLPPFTRPPLMSQAATNTVIVTNSENARSWIKDSQTHQWRLGEPIELRRAMNVIHGDGGGLS
As for B1, the “stoichiometry N” value is 16.

B2: human MPEG1 soluble ectodomain, L425K mutant (domain or fragment)
chain: KSGKPSGEMDEVGVQKCKNALKLPVLEVLPGGGWDNLRNVDMGRVMELTYSNCRTTEDGQYIIPDEIFTIPQKQSNLEMNSEILESWANYQSSTSYSINTELSLFSKVNGKFSTEFQRMKTLQVKDQAITTRVQVRNLVYTVKINPTLELSSGFRKELLDISDRLENNQTRMATYLAELLVLNYGTHVTTSVDAGAALIQEDHLRASFLQDSQSSRSAVTASAGLAFQNTVNFKFEENYTSQNVLTKSYLSNRTNSRVQSIGGVPFYPGITLQAWQQGITNHLVAIDRSGLPLHFFINPNMLPDLPGPLVKKVSKTVETAVKRYYTFNTYPGCTDLNSPNFNFQANTDDGSCEGKMTNFSFGGVYQECTQLSGNRDVLLCQKLEQKNPLTGDFSCPSGYSPVHLLSQIHEEGYNHLECHRKCTLKVFCKTVCEDVFQVAKAEFRAFWCVASSQVPENSGLLFGGLFSSKSINPMTNAQSCPAGYFPLRLFENLKVCVSQDYELGSRFAVPFGGFFSCTVGNPLVDPAISRDLGAPSLKKCPGGFSQHPALISDGCQVSYCVKSGLFTGGSLPPARLPPFTRPPLMSQAATNTVIVTNSENARSWIKDSQTHQWRLGEPIELRRAMNVIHGDGGGLS
modifications: a glycan moiety attached to TMH-2 (residue not given)
As for B2, the “stoichiometry N” value came out at 16.

The record behind these values is paper PMC6753088, “The cryo-EM structure of the acid activatable pore-forming immune effector Macrophage-expressed gene 1” (Nature Communications, 2019).
